Experimental data: patent US20230358742A1 (MIT, published 2023)
Positions count from the first letter of the chain named.

T1: His-LSP (LMOf2365_0639, Listeria monocytogenes surface protein, with N-terminal 6x-histidine tag) (Listeria monocytogenes)
T1 construct: also called Listeria surface protein
T1 chain: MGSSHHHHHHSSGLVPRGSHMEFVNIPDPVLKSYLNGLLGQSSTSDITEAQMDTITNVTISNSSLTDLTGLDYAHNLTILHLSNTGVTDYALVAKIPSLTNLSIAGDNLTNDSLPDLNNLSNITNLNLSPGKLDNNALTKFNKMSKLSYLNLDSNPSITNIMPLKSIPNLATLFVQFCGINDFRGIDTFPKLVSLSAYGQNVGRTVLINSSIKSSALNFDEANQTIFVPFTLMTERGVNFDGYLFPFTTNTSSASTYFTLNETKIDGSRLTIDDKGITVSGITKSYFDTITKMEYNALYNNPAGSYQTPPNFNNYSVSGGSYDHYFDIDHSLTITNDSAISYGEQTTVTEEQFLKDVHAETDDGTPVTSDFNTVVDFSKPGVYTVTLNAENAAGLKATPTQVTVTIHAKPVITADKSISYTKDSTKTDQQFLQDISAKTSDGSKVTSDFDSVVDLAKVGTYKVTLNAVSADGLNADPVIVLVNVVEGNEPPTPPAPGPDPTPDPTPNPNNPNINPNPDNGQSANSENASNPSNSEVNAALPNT

B1: rcSso7d.LSP.6 (designed binder)
chain: MATVKFTYQGEEKQVDISKIKDVGRHGQHICFWL
notes: also called clone 6; Clone 6
B2: rcSso7d.LSP.1 (designed binder)
chain: B1 chain with H26S, H29N, W33Y
notes: also called clone 1; Clone 1
B3: rcSso7d.LSP.5 (designed binder)
chain: MATVKFTYQGEEKQVDISKIKWVRRAGQWIDFAYDEGGGAKGYGIVSEKDAPKELLQCWKS
notes: also called clone 5; Clone 5
B4: rcSso7d.LSP.7 (designed binder)
chain: MATVKFTYQGEEKQVDISKIKIAVYRYGQYIYFSYDEGGGASGIGKVSEKDAPKELLQMLEKQ
notes: also called clone 7; Clone 7
B5: rcSso7d.LSP.2 (designed binder)
chain: B1 chain with H29K, W33L
notes: also called clone 2; Clone 2
B6: rcSso7d.LSP.4 (designed binder)
chain: B1 chain with H26Y, H29R
notes: also called clone 4; Clone 4
B7: rcSso7d.LSP.3 (yeast-surface displayed) (designed binder)
chain: MATVKFTYQGEEKQVDISKIKIAKRYGQIIDFSYDEGGGARGWGIVSEKDAPKELLQMLEKQ
notes: also called clone 3; Clone 3

Target: T1, His-LSP (LMOf2365_0639, Listeria …)
Assay: flow cytometry, clonal yeast-surface display, 20 nM His-LSP

Binder | binding result
B1 | binds
B2 | binds
B3 | binds
B4 | binds

Target: T1, His-LSP (LMOf2365_0639, Listeria …)
Assay: FACS histograms, clonal yeast-surface display, 20 nM of LSP (FIG. 3B)

Binder | binding result
B5 | binds
B6 | binds
B7 | binds
